From patent US20190300610A1

Experiments:
Assay in all cases: reported; reported KD
mFcRn = biological target: mFcRn
mFcgRIIb = biological target: mFcgRIIb
mFcgRIV = biological target: mFcgRIV
mFcgRIII = biological target: mFcgRIII

Substance	Kd (mFcRn) [nM]	Kd (mFcgRIIb) [nM]	Kd (mFcgRIV) [nM]	Kd (mFcgRIII) [nM]
mIgG3	140			
hIgG3	230	700	170	1300
mIgG2b	545	448	59	1560
hIgG2	63	7900		9700
mIgG2a	490	2390	34.5	1460
hIgG1	72	1100	280	9300
mIgG1	1160	301		3200
hIgG4	116	11000	26000	21000
